Results published in paper PMC9159934.

Target: BsaXI specificity subunit, WT: TRD1-CR1-TRD2-CR2 (Bacillus stearothermophilus 25B (Geobacillus sp. 25B))
Assay: co-purification by chromatography + SDS-PAGE band densitometry; RM and S expressed separately as intein-CBD fusions, combined and purified together over chitin, DEAE, heparin, Source 15S, Source 15Q and gel filtration (Superdex 75); RM:S ratio estimated from molecular mass and band intensity on SDS-PAGE (Bio Rad gel imaging software)

## BsaXI restriction-modification subunit (RM fusion) (enzyme)
  stoichiometry N: 2 RM per S
